A short description of data set [1]: FACS of cell surface PD-L1, H460. To be noted: glycan lost; control: wild type.
The nature of data set [2]: anti-Flag immunofluorescence, also with HSP90B1/DAPI co-staining. The following applies: glycan lost; control: wild type.
Data set [3] can be described thus: anti-Flag immunofluorescence, H460 and PD-L1 KO cells. The following applies: glycan lost; control: untreated.

For PD-L1: N219Q, the values for the localisation_or_trafficking entry in data set [1] and in data set [2] were “decreases” and “changes”, respectively. For the substance PD-L1: tunicamycin (5μg/ml), the localisation_or_trafficking result in data set [3] was “changes”.

With PD-L1: N200Q, the localisation_or_trafficking result in data set [1] and in data set [2] was “no change” each time.

PD-L1: N192Q: the localisation_or_trafficking entry in data set [1] and in data set [2] was “no change” each time. For PD-L1: N35Q, the localisation_or_trafficking entry in data set [1] and in data set [2] was “no change” throughout.

The values are drawn from publication PMC11316045.
